{"source": "patent US6458355", "about": "(Genentech, dated 2002)", "molecular_target": "T1, recombinant human IL-8, (ser-IL-8)72 (human, UniProt P10145 28-99)", "T1 construct": "mature; also called human wild type IL-8; wt IL-8", "T1 sequence (looked up)": "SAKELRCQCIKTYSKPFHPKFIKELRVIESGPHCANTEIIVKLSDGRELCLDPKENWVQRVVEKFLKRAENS", "assay": "competition of 125I-IL-8 binding to human neutrophils", "data": [{"binder": "humanized 6G425 F(ab)-1 (Fab, V domains shown, Fab with human kappa subgroup I light and human IgG1 subgroup III heavy chain (pEMX1); CDR swap; also called version 1; V1) VH: EVQLVESGGGLVQPGGSLRLSCAASGYSFSSHYMHWVRQAPGKGLEWVGYIDPSNGETTYNQKFKGRFTISRDNSKNTLYLQMNSLRAEDTAVYYCARGDYRYNGDWFFDVWGQGT VL: DIQMTQSPSSLSASVGDRVTITCRSSQSLVHGIGNTYLHWYQQKPGKAPKLLIYKVSNRFSGVPSRFSGSGSGTDFTLTISSLQPEDFATYYCSQSTHVPLTFGQGTKVEIKR", "values": [{"measurement": "fold reduction in binding affinity (against the chimeric F(ab))", "value": 5.5, "unit": "fold"}]}]}
